Measurements reported in the DeepSol protein solubility set.

Assay: soluble on expression in E. coli; label from the status in PepcDB or PDB records

Sequence	soluble on expression in E. coli
MSSILIIGAGPTGLGAAHRLRGLGLENWHLFESTEQIGGLSASFVDDHGFTWDVGGHVLFSHYDYFDRVVEEALDGAWYEHQRECWVRIRETWVPYPFQNNIRHLPPDALEECLAGLKGLAGSPSLAANFREWMDRVFGAGIVKHFMEPYNRKVWGVPLHEMSREWIGERVSVIDLARIEKNIAEKTDDVNWGPNNTFKFPHKGGTGAIFSSIATRFQDRISFSHELTEVNLAARELGFSNGRRERYDSLITTIPLDIFIGLCRDVPESVREAASRLVHNSGLIVGIGVEGERRDSKCWMYFPEDNCPFYRVTNFHNYSPWNVPNGDTSRFFSLMCETTSSPHKPVNRAEIVETTIQGLINAGMLTESERERIISRYVIDIPYSYPVPTVGRDEALAVINPFLESQGVYSRGRFGAWKYEVGNMDHSFMQGVEVADRILNGADEPTVTGKGGDRLEHHHHHH	not soluble
MSSKKNFEVGENVACIYKGKPYDAKITDIKTNSDGKELYCVHFKGWNNRYDEKIPVGEEKDRIFKGTASEYAEKHNAELPTTALKPKKKSLAAEAPRDDRDDTPGTSKGKKAKSVTIAPVMTADDMKVELPKPLRKILIDDYDLVCRYFINIVPHEYSVDQIIEDYIKTIPVSNEQMRTVDDLLIEYEEADIKITNLALICTARGLVDYFNVTLGYQLLYKFERPQYNDLVKKRAMEKGIDITNPTALQDSGFRPSQEYGIVHFLRMLAKLPDYLKLTQWNDHVINRIMIGVHDLIVFLNKNHGKYYRGSSDYQGASNDYYRRSLAADDGVGANQ	not soluble
MSSMEGKKVPQVTFRTRQGDKWVDVTTSELFDNKTVIVFSLPGAFTPTCSSSHLPRYNELAPVFKKYGVDDILVVSVNDTFVMNAWKEDEKSENISFIPDGNGEFTEGMGMLVGKEDLGFGKRSWRYSMLVKNGVVEKMFIEPNEPGDPFKVSDADTMLKYLAPQHQVQESISIFTKPGCPFCAKAKQLLHDKGLSFEEIILGHDATIVSVRAVSGRTTVPQVFIGGKHIGGSDDLEKYFA	soluble
MSSPSGSSRTFPQYQSGSGWNAMLPKRTPRTAAPARRHFKSLVIGAGYTGLAAARRLAELQPQDQVLVVDATVAGEGSAGRNSGFLINLPHNTRMSGHHSPLEVARKQIAMLQSGLDWLAQLSGQGGFDCGWDLAGKYHAAATADGEQSLRGALQQYGQWGVAFSELDRDALQAQLGTRYYRFGYHSMNNVFVQPAALIRGLADSLPENVWLMEDNPVLSIDGSGPYKVRTRGGEFTADNVILANNAFARRLGFLRSRLVTIFTYAGVTPVLSPAQQALLGERDQWGVIPANRLGTTLRRISGGRFMVRSAYSYEAEQPLERMEQLLRDSFVRRYPDLAAHDFEYVWSGSTGLTGNGASFVGAIQPGLYASVGCNGAGVIKGTIYGKLLGEQVAGHRSAMLDDLASFEKPNWLPPEPLRRIGALSTIAYQARKAGLEKLEHHHHHH	not soluble
MSSQIRGSKQHEDVDPVTIKKIEEAYVMLNGPDGAKCSSLLKKNLTKDVIEKLKTKSTKLGANLYDCIRSGVYCLDALVGVYAPDAEAYTLFAPLFDKIIEDYHGLGPDQKQPPVDLGEGKTKEFPPLDPKGKYIKSTRIRCGRSLNGYQFNPCLTEDNYLEMEEKVKKAFSEFSDEELKGTYYPLDGMSKDTQNQLIADHFLFKEGDRHLQYANACNFWPKGRGIFHNNKKTFLIWVNEEDHLRIISMQEGSDVGAVLERLIKGVRGIEKQVQFSRDDRLGWLTFCPTNLGSTVRASVHIALPKLSAREDFKQICDKLDLQLRGIHGEHSESEGGVYDISNRARLGLSEYEAVKKMYDGVKNLIEMEEKET	not soluble
MSSSPSLPSSASVPAAFDRAPVSGLPDNAIEIDALRKVYGGGKVALESLSLAIPRGSFFGLLGPNGAGKSTLINIMAGLVRKTSGRVRIWGNDIDTDERAARCAIGIVPQELSFDPFFTPREMLDVQAGLYGVPKAERRTLEILRAVGLEDKADAYSRTLSGGMRRRLLVAKAMVHSPPILVLDEPTAGVDIELRQQLWAYVRDLNARGTTVLLTTHYLEEAEELCDRIAIIDHGKVVVSEPTTTLLGRLDNKSLTLRLAQPLDAPPPALAALGAELRDPYHLVITYHPSSLPMARILDAARAGGLTIADLTTREADLEDVFLRLTSSHHRAQEIGLEHHHHHH	soluble
MSSSPVKRQRMESALDQLKQFTTVVADTGDFHAIDEYKPQDATTNPSLILAAAQMPAYQELVEEAIAYGRKLGGSQEDQIKNAIDKLFVLFGAEILKKIPGRVSTEVDARLSFDKDAMVARARRLIELYKEAGISKDRILIKLSSTWEGIQAGKELEEQHGIHCNMTLLFSFAQAVACAEAGVTLISPFVGRILDWHVANTDKKSYEPLEDPGVKSVTKIYNYYKKFSYKTIVMGASFRNTGEIKALAGCDFLTISPKLLGELLQDNAKLVPVLSAKAAQASDLEKIHLDEKSFRWLHNEDQMAVEKLSDGIRKFAADAVKLERMLTERMFNAENGK	soluble
MSSSTSSVESVEDESCSNECSASFTFDTNNNSRGNNQVNELAEETHMKLSITPTRESFSLSQLERIITIGKGTFGRVELARDKITGAHYALKVLNIRRVVDMRQTQHVHNEKRVLLQLKHPFIVKMYASEKDSNHLYMIMEFVPGGEMFSYLRASRSFSNSMARFYASEIVCALEYIHSLGIVYRDLKPENLMLSKEGHIKMADFGFAKELRDRTYTICGTPDYLAPESLARTGHNKGVDWWALGILIYEMMVGKPPFRGKTTSEIYDAIIEHKLKFPRSFNLAAKDLVKKLLEVDRTQRIGCMKNGTQDVKDHKWFEKVNWDDTLHLRVEPPIVPTLYHPGDTGNFDDYEEDTTGGPLCSQRDRDLFAEW	not soluble
MSSTQTDYRLSDDLLGPVLAILDAYIDPYLAKGLVSAGCVNKLAIEGKRLQLGLVYPYPCMTQYRDTVMALTNKLAVLDAIDEVECEIDFQPKVYSAIASIAPIANVKQVIAVASGKGGVGKSTTAVNLALALAAEGAQVGILDADIYGPSVPLMLGIPNFRPVSPDGKHMTAASAYGIAAQSIGFMLSGDEAAVWRGPMAAGALAQLLNETQWPELDYLVVDMPPGTGDIQLTLSQKVPVSGAVIVTTPQDIALADAKKGITMFQKVNIPVLGIVENMSFHLCPECGHKEHPFGTHGGSKMAERYQVPLLGALPLHINIREAMDVGAPTVVAEPDSEVAALYREIARKVGAELALKQSQKTVSISVSDDELEHHHHHH	soluble
MSSVELPQVMDDNLISRRKKIMQSIEDIRGKKAEIAQALRELGVGKPQENESVKEDMKLLLAAFDSISAQEAQYMDILKTIVGIHEQATLDIAKDFEKKIEDDAQKLKEQKEKQEEDATEEDENAEKTPEEQANSEVIAELQEALLELKQVSEAAVAASELNEKLVERLQLTKRKKSAMMEVRAKKAKDLDDVATKVRAEVMERINKMAALKKTTTKQEKELKELQKQCLQLGLQLGTDENREIDPAAEEALLDDNQRVPVIVETQEKPDLNDEEKEKRREEIRENIKKEMEKKEQVNTLIREKLASMNARRKRLQEIRKMLEKQEHEKEKLDAAISNSAVAVQNDGEGIALTPETPRPSQEDEAEAPAAAETTVVSAPVAASEDIDEEEDGEVTEKSLDDILENARANLSNLTAMRERLEHIKETGGADLNEDDLTLLERLDNVALEEDEKLTPTP	soluble
MSTAKAPTLPASIFRAYDIRGVVGDTLTAETAYWIGRAIGSESLARGEPCVAVGRDGRLSGPELVKQLIQGLVDCGCQVSDVGMVPTPVLYYAANVLEGKSGVMLTGSHNPPDYNGFKIVVAGETLANEQIQALRERIEKNDLASGVGSVEQVDILPRYFKQIRDDIAMAKPMKVVVDCGNGVAGVIAPQLIEALGCSVIPLYCEVDGNFPNHHPDPGKPENLKDLIAKVKAENADLGLAFDGDGDRVGVVTNTGTIIYPDRLLMLFAKDVVSRNPGADIIFDVKCTRRLIALISGYGGRPVMWKTGHSLIKKKMKETGALLAGEMSGHVFFKERWFGFDDGIYSAARLLEILSQDQRDSEHVFSAFPSDISTPEINITVTEDSKFAIIEALQRDAQWGEGNITTLDGVRVDYPKGWGLVRASNTTPVLVLRFEADTEEELERIKTVFRNQLKAVDSSLPVPF	soluble
MSTGKIQFAEQNGSFVLKFVGEVRLTLCSALDSTIEKIFAALNFSAIIIDLTETQSIDSTTLGLLAKLSILSRQKIGLLPTLVTTNPDITRLLQSMGFDQVFNIVDRPIPCPECLSDLPPQDQSEDVVRDKVLEAHRILMGLNESNREAFHDLVSALERH	not soluble
MSTLKIAPSILAADYANFASELARIEETDAEYVHIDIMDGQFVPNISFGADVVASMRKHSKLVFDCHLMVVDPERYVEAFAQAGADIMTIHTESTRHIHGALQKIKAAGMKAGVVINPGTPATALEPLLDLVDQVLIMTVNPGFGGQAFIPECLEKVATVAKWRDEKGLSFDIEVDGGVDNKTIRACYEAGANVFVAGSYLFKASDLVSQVQTLRTALNV	soluble
MSTLSQLKPASLWQLFEKICSIPHPSKHEQKISLWIQDWAKELGLAIKEDAVGNLFIKKPATAGMEDRKGIILQAHMDMVPQKNNDTDHDFITDPIKPYVIDSGDWVTAEGTTLGADNGVGLASALAILASDDIPHGPLEVLVTIDEEAGMTGAFGLEAGWLDGDILINTDSEQEGEVYMGCAGGIDGNATFALTLEDVPSNYQAFNLSISGLKGGHSGVDIHTGRANANKLLVRFLLSASIDFDISLTELNGGSLRNAIPREANASFVVAKDKVEALKVALADYLSTISANLGAIETDIDMLLISPEDFEQCWTKATQASILRALNACPNGVIRMSDDIEGIVETSLNLGVIHTRGSKLNAMVLIRSLHDDGRLETQRMVQSVFELAGANVVFSGAYPGWKPNTDSAIMQTVRDTYESIFNKVPAVMVIHAGLECGLFKTAYPHWDMVSIGPTIKFPHSPDEKIEIATVEQYWQLLVAVLANIPKKLEHHHHHH	soluble
MSTQYLNSNLKVFSLNSNKELAEQIAKHIGVGLGKCSVDRFSDGEVQINIEESIRGCDVFIIQSTSFPVNEHIMELLIMIDALKRASAKTINIVIPYYGYARQDRKARSREPITSKLVANLLETAGATRVITLDLHAPQIQGFFDIPIDHLMGVPILSDYFETKGLKDIVIVSPDHGGVTRARKMADRLKAPIAIIDKRRPRPNVSEVMNIIGNIEGKTAILIDDIIDTAGTITLAANALVENGASEVYACCTHPVLSGPAIERIQNSNIKELVVTNSIVLPEEKKIDKVHELSVAPLIGEAIIRVYEEESVSVLFN	not soluble
MSTRFRLSLALLTTLVLSACDDAPRFTHAEPGEALSGGSATVRKSDQNAFSMPSANLSPVRRLDFSVGNSFFRSPWVIAPSTTTARDGLGPLFNTNACQNCHIKDGRGHPPEAGDSNAVSMLVRLSIPDDPAYADLIRRNGVLPEPTYGGQLQDMSNPGVAPEGKVRVEYDALTVNFRDGTAVELRQPTLRITQLGYGPMHPETHISARIAPPMIGLGLLEAIADDAILANADPDDKNADGISGRPNWVWDDVQQKVVMGRFGWKAGQPNLNQQNVHAFSGDMGLTTSLRRVDDCTPAQTDCLVAPNGNGPDGEPEVSDNILRLVEFYTRNLGVPARRKVADPQVLAGKNLFFEAGCQQCHTPSFKTRSDAAQPELANQDIRPYSDLLLHDMGEGLADNRTEFQATGREWRTPPLWGLGLTETVSGHTQLLHDGRARNMLEAILWHGGEAQAAQRRVLAFDAEQREALLAFLNSL	not soluble
MSTRKDYLSFIAVAAHEFVHTWNVKQYRPKGIVPYDYQQENYSNLLWLVEGSTSYLQYQLLLRGNLMTTDEFFTALAKRITAHAHKPGKESQSVAQASFDAWISEGGDYGNNHSVNIYSEGFLASWLLDFDILAKTALEHHHHHH	not soluble
MSTRWYPIYQRGNPQLRVFLPNFWMKLIRPTEEQPPNVVTFSVSMEMTKYDVRNYLEKIYKLPVVDVRTRIAMGETKKDQTYGYITKKDDVKLAYVTLPREESFVFPDFFSEKAEKQAKEEKSLDESKAGFRRFLDRNKKRPGTPGWFSI	not soluble
